The results in this text go back to the supplement of paper PMC11246515.

A short description of this data set: total protein half-life in vivo (active degradation + dilution); higher = more stable protein.
The mark [1] stands for this setting: E. coli NCM3722 delta-clpP delta-lon delta-hslV, growth: N-lim chemostat, doubling time 6 h.
Setting [2] is: E. coli NCM3722 delta-clpP, growth: N-lim chemostat, doubling time 6 h.
Where [3] appears, read: wild type E. coli NCM3722, growth: C-lim chemostat, doubling time 3 h.
Where [4] appears, read: wild type E. coli NCM3722, growth: C-lim chemostat, doubling time 6 h.
[5] abbreviates: wild type E. coli NCM3722, growth: C-lim chemostat, doubling time 12 h.
[6] abbreviates: E. coli NCM3722 delta-hslV, growth: N-lim chemostat, doubling time 6 h.
Where [7] appears, read: E. coli NCM3722 delta-lon, growth: N-lim chemostat, doubling time 6 h.
[8] abbreviates: E. coli NCM3722 delta-smpB, growth: N-lim chemostat, doubling time 6 h.
Setting [9] is: wild type E. coli NCM3722, growth: N-lim chemostat, doubling time 6 h.
[10] abbreviates: wild type E. coli NCM3722, growth: N-lim chemostat, doubling time 12 h.
Where [11] appears, read: wild type E. coli NCM3722, growth: P-lim chemostat, doubling time 6 h.
Setting [12] is: wild type E. coli NCM3722, growth: P-lim chemostat, doubling time 12 h.

± gives the standard deviation of the averaged measurements. Some results are limits rather than exact numbers.

As to “MKQEVILVLDCGATNVRAIAVNRQGKIVARASTPNASDIAMENNTWHQWSLDAILQRFADCCRQINSELTECHIRGIAVTTFGVDGALVDKQGNLLYPIISWKCPRTAAVMDNIERLISAQRLQAISGVGAFSFNTLYKLVWLKENHPQLLERAHAWLFISSLINHRLTGEFTTDITMAGTSQMLDIQQRDFSPQILQATGIPRRLFPRLVEAGEQIGTLQNSAAAMLGLPVGIPVISAGHDTQFALFGAGAEQNEPVLSSGTWEILMVRSAQVDTSLLSQYAGSTCELDSQAGLYNPGMQWLASGVLEWVRKLFWTAETPWQMLIEEARLIAPGADGVKMQCDLLSCQNAGWQGVTLNTTRGHFYRAALEGLTAQLQRNLQMLEKIGHFKASELLLVGGGSRNTLWNQIKANMLDIPVKVLDDAETTVAGAALFGWYGVGEFNSPEEARAQIHYQYRYFYPQTEPEFIEEV”, the “total protein half-life in vivo” value by setting is: under setting [1], 5.11 h; under setting [2], 3.99 ± 0.14 h; under setting [3], 0.905 ± 0.18 h; under setting [4], 2.56 h; under setting [5], 1.49 h.

As for “MTNLTLDVNIIDFPSIPVAMLPHRCSPELLNYSVAKFIMWRKETGLSPVNQSQTFGVAWDDPATTAPEAFRFDICGSVSEPIPDNRYGVSNGELTGGRYAVARHVGELDDISHTVWGIIRHWLPASGEKMRKAPILFHYTNLAEGVTEQRLETDVYVPLA”, the “total protein half-life in vivo” value under setting [1] is 6.15 h.

As to “MTATAQQLEYLKNSIKSIQDYPKPGILFRDVTSLLEDPKAYALSIDLLVERYKNAGITKVVGTEARGFLFGAPVALGLGVGFVPVRKPGKLPRETISETYDLEYGTDQLEIHVDAIKPGDKVLVVDDLLATGGTIEATVKLIRRLGGEVADAAFIINLFDLGGEQRLEKQGITSYSLVPFPGH”, the “total protein half-life in vivo” value runs as follows: under setting [2], 4.03 ± 0.92 h; under setting [6], 4.32 ± 0.47 h; under setting [7], 4.33 ± 0.17 h; under setting [8], 3.58 ± 0.46 h; under setting [4], 4.57 ± 0.87 h; under setting [5], 8.09 ± 0.39 h. Further, the “total protein half-life in vivo” value is, setting by setting: under setting [9], 5.06 ± 1 h; under setting [10], 6.92 ± 0.095 h; under setting [11], 5.1 ± 0.18 h; under setting [12], 10.9 ± 0.8 h.

On to “MDLRRFITLKTVVEEGSFLRASQKLCCTQSTVTFHIQQLEQEFSVQLFEKIGRRMCLTREGKKLLPHIYELTRVMDTLREAAKKESDPDGELRVVSGETLLSYRMPQVLQRFRQRAPKVRLSLQSLNCYVIRDALLNDEADVGVFYRVGNDDALNRRELGEQSLVLVASPQIADVDFTEPGRHNACSFIINEPQCVFRQIFESTLRQRRITVENTIELISIESIKRCVAANIGVSYLPRFAVAKELECGELIELPFGEQSQTITAMCAHHAGKAVSPAMHTFIQCVEESFVAG”, for which the “total protein half-life in vivo” value under setting [1] came out at 5.31 ± 0.83 h; the “total protein half-life in vivo” value under setting [2] was more than 8 h; the “total protein half-life in vivo” value under setting [6] was found to be 4.13 h; the “total protein half-life in vivo” value under setting [7] stood at 4.83 h; the “total protein half-life in vivo” value under setting [8] worked out at 3.41 h; the “total protein half-life in vivo” value under setting [4] came out at 4.86 h. For the same sequence, the “total protein half-life in vivo” value runs as follows: under setting [5], 8.259 ± 0.077 h; under setting [9], 4.37 ± 0.49 h; under setting [10], 6.51 h; under setting [11], 5.85 h; under setting [12], 7.91 h.

With “MAMHLNENLDDNGEMHDINVTPFIDVMLVLLIIFMVAAPLATVDVKVNLPASTSTPQPRPEKPVYLSVKADNSMFIGNDPVTDETMITALNALTEGKKDTTIFFRADKTVDYETLMKVMDTLHQAGYLKIGLVGEETAKAK [P0ABV2]”, the “total protein half-life in vivo” value reads like this: under setting [1], 2.68 ± 0.35 h; under setting [2], 2.74 ± 0.56 h; under setting [8], 0.61 h; under setting [3], 1.34 ± 0.17 h; under setting [4], 0.847 ± 0.64 h; under setting [5], 1.88 ± 0.74 h. In addition, the “total protein half-life in vivo” value reads like this: under setting [9], 1.12 h; under setting [11], 1.01 h; under setting [12], 2.15 h.

Regarding “MLNPIVRKFQYGQHTVTLETGMMARQATAAVMVSMDDTAVFVTVVGQKKAKPGQDFFPLTVNYQERTYAAGRIPGSFFRREGRPSEGETLIARLIDRPIRPLFPEGFVNEVQVIATVVSVNPQVNPDIVAMIGASAALSLSGIPFNGPIGAARVGYINDQYVLNPTQDELKESKLDLVVAGTEAAVLMVESEAQLLSEDQMLGAVVFGHEQQQVVIQNINELVKEAGKPRWDWQPEPVNEALNARVAALAEARLSDAYRITDKQERYAQVDVIKSETIATLLAEDETLDENELGEILHAIEKNVVRSRVLAGEPRIDGREKDMIRGLDVRTGVLPRTHGSALFTRGETQALVTATLGTARDAQVLDELMGERTDTFLFHYNFPPYSVGETGMVGSPKRREIGHGRLAKRGVLAVMPDMDKFPYTVRVVSEITESNGSSSMASVCGASLALMDAGVPIKAAVAGIAMGLVKEGDNYVVLSDILGDEDHLGDMDFKVAGSRDGISALQMDIKIEGITKEIMQVALNQAKGARLHILGVMEQAINAPRGDISEFAPRIHTIKINPDKIKDVIGKGGSVIRALTEETGTTIEIEDDGTVKIAATDGEKAKHAIRRIEEITAEIEVGRVYTGKVTRIVDFGAFVAIGGGKEGLVHISQIADKRVEKVTDYLQMGQEVPVKVLEVDRQGRIRLSIKEATEQSQPAAAPEAPAAEQGE”, the “total protein half-life in vivo” value worked out at 6.65 ± 0.71 h under setting [1]; 6.67 ± 0.63 h under setting [2]; 5.92 ± 0.65 h under setting [6]; 6.01 ± 0.18 h under setting [7]; 5.58 ± 0.41 h under setting [8]; 3.25 ± 0.055 h under setting [3]. For the same sequence, the “total protein half-life in vivo” value was 6.31 ± 0.21 h under setting [4]; 11.5 ± 0.16 h under setting [5]; 5.78 ± 0.26 h under setting [9]; 11.8 ± 0.57 h under setting [10]; 6.05 ± 0.14 h under setting [11]; 12.4 ± 1.5 h under setting [12].

On to “MQLKRVAEAKLPTPWGDFLMVGFEELATGHDHVALVYGDISGHTPVLARVHSECLTGDALFSLRCDCGFQLEAALTQIAEEGRGILLYHRQEGRNIGLLNKIRAYALQDQGYDTVEANHQLGFAADERDFTLCADMFKLLGVNEVRLLTNNPKKVEILTEAGINIVERVPLIVGRNPNNEHYLDTKAEKMGHLLNK [P0A7I7]”, for which the “total protein half-life in vivo” value is 4.5 ± 0.35 h under setting [1]; 4.52 ± 0.67 h under setting [2]; 4.48 ± 0.35 h under setting [6]; 4.54 ± 0.19 h under setting [7]; 4.54 ± 0.23 h under setting [8]; 2.92 ± 0.095 h under setting [3]. Also, the “total protein half-life in vivo” value runs as follows: under setting [4], 5.1 ± 0.3 h; under setting [5], 8.93 ± 0.54 h; under setting [9], 4.27 ± 0.17 h; under setting [10], 6.85 ± 0.2 h; under setting [11], 6.08 ± 0.73 h; under setting [12], 10.3 ± 0.8 h.
